Measurements published in patent US20100233689A1.

Experiments:
[1] = molecular target: endogenous MISRII of the mouse ovarian cancer cell line MOVCAR7 (mouse) (UniProt Q8K592); assay: cell-based or functional assay
[2] = molecular target: rat MISRII receptor (MIS type II receptor), transiently expressed in COS7 cells (rat) (UniProt Q62893); assay: cell-based or functional assay
Chain of rat MISRII receptor (MIS type II receptor), transiently expressed in COS7 cells (rat) (Q62893 18-557): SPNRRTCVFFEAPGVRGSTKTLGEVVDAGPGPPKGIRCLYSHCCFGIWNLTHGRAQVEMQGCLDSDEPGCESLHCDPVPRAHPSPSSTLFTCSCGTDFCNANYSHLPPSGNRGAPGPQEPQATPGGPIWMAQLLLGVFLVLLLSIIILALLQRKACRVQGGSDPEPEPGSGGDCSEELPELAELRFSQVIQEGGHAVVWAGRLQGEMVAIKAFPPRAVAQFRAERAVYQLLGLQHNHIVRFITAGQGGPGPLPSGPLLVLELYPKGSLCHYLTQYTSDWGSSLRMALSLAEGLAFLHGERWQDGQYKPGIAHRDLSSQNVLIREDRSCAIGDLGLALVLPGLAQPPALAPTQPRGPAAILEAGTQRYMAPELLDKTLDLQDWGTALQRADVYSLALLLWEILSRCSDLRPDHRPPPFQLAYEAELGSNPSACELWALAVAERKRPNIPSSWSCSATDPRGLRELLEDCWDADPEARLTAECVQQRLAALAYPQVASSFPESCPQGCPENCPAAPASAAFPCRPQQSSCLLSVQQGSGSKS

Chain of endogenous MISRII of the mouse ovarian cancer cell line MOVCAR7 (mouse) (Q8K592 16-568): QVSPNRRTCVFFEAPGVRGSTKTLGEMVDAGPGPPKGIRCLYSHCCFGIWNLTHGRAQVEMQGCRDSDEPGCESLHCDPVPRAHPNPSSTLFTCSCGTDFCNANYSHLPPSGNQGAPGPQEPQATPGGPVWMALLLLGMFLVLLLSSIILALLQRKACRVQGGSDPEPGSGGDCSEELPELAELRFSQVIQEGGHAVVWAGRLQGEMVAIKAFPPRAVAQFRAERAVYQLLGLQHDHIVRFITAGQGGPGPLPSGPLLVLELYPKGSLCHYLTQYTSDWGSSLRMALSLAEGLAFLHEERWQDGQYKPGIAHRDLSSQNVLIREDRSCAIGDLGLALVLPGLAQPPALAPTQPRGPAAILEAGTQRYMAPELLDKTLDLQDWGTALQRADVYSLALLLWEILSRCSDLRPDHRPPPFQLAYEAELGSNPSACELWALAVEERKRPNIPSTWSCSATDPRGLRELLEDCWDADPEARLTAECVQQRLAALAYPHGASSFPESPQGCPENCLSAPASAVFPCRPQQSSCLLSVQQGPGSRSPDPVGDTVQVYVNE

“Recombinant human Mullerian Inhibiting Substance (MIS) (from UniProt P03971 25-560) (ligand)” was tested, and the BRE-luciferase activity in MOVCAR7 cells, fold increase over untreated cells, 24 h [1] was 2 fold and the BRE-luciferase reporter expression in MISRII-transfected COS7 cells, fold induction, 24 h [2] was > 10 fold.
